Measured values taken from patent publication US20240261333A1, “NOVEL TARGETS FOR ENHANCING ANTI-TUMOR IMMUNITY” (THE BROAD INSTITUTE, INC., priority 2021, published 2024).

T1: B3GNT2 (Homo sapiens, UniProt Q9NY97)
T1 construct: The respective ORFs of candidate genes [CD274 (NM_014143), MCL1 (NM_021960), JUNB (NM_002229), and B3GNT2 (NM_006577)] were synthesized; expressed in transfected cells; host or cells: A375 melanoma cells (lentiviral ORF overexpression)
T1 sequence (Q9NY97 1-397): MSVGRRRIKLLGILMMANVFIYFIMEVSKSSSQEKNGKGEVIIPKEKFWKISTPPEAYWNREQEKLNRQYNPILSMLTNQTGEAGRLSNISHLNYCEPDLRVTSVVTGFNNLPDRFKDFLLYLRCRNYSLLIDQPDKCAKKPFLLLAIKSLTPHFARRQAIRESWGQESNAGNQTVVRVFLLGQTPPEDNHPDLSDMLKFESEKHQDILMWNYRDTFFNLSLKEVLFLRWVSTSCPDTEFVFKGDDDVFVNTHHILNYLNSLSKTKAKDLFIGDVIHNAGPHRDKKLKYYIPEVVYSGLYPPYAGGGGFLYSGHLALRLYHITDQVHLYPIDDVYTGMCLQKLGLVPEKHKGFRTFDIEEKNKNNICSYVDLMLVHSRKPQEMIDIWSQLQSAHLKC

B1: ATXN2L (protein)
chain: MLKPQPLQQPSQPQQPPPTQQAVARRPPGGTSPPNGGLPGPLATSAAPPGPPAAASPCLGPVAAAGSGLRRGAEGILAPQPPPPQQHQERPGAAAIGSARGQSTGKGPPQSPVFEGVYNNSRMLHFLTAVVGSTCDVKVKNGTTYEGIFKTLSSKFELAVDAVHRKASEPAGGPRREDIVDTMVFKPSDVMLVHFRNVDFNYATKDKFTDSAIAMNSKVNGEHKEKVLQRWEGGDSNSDDYDLESDMSNGWDPNEMFKFNEENYGVKTTYDSSLSSYTVPLEKDNSEEFRQRELRAAQLAREIESSPQYRLRIAMENDDGRTEEEKHSAVQRQGSGRESPSLASREGKYIPLPQRVREGPRGGVRCSSSRGGRPGLSSLPPRGPHHLDNSSPGPGSEARGINGGPSRMSPKAQRPLRGAKTLSSPSNRPSGETSVPPPPAVGRMYPPRSPKSAAPAPISASCPEPPIGSAVPTSSASIPVTSSVSDPGVGSISPASPKISLAPTDVKELSTKEPGRTLEPQELARIAGKVPGLQNEQKRFQLEELRKFGAQFKLQPSSSPENSLDPFPPRILKEEPKGKEKEVDGLLTSEPMGSPVSSKTESVSDKEDKPPLAPSGGTEGPEQPPPPCPSQTGSPPVGLIKGEDKDEGPVAEQVKKSTLNPNAKEFNPTKPLLSVNKSTSTPTSPGPRTHSTPSIPVLTAGQSGLYSPQYISYIPQIHMGPAVQAPQMYPYPVSNSVPGQQGKYRGAKGSLPPQRSDQHQPASAPPMMQAAAAAGPPLVAATPYSSYIPYNPQQFPGQPAMMQPMAHYPSQPVFAPMLQSNPRMLTSGSHPQAIVSSSTPQYPSAEQPTPQALYATVHQSYPHHATQLHAHQPQPATTPTGSQPQSQHAAPSPVQHQAGQAPHLGSGQPQQNLYHPGALTGTPPSLPPGPSAQSPQSSFPQPAAVYAIHHQQLPHGFTNMAHVTQAHVQTGITAAPPPHPGAPHPPQVMLLHPPQSHGGPPQGAVPQSGVPALSASTPSPYPYIGHPQGEQPGQAPGFPGGADDRIREFSLAGGIWHGRAEGLQVGQDARVLGGE
B2: SDF4 (protein)
chain: RPANHSSTRERVANREENEILPPDHLNGVKLEMDGHLNRGFHQEVFLGKDLGGFDEDAEPRRSRRKLMVIFSKVDVNTDRKISAKEMQRWIMEKTAEHFQEAMEESKTHFRAVDPDGDGHVSWDEYKVKFLASKGHSEKEVADAIRLNEELKVDEETQEVLENLKDRWYQADSPPADLLLTEEEFLSFLHPEHSRGMLRFMVKEIVRDLDQDGDKQLSVPEFISLPVGTVENQQGQDIDDNWVKDRKKEFEELIDSNHDGIVTAEELESYMDPMNEYNALNEAKQMIAVADENQNHHLEPEEVLKYSEFFTGSKLVDYARSVHEEF
B3: SPRR2E (protein)
chain: MSYQQQQCKQPCQPPPVCPTPKCPEPCPPPKCPEPCPPPKCPQPCPPQQCQQKCPPVTPSPPCQPKCPPKSK
B4: DSTN (protein)
chain: ASGVQVADEVCRIFYDMKVRKCSTPEEIKKRKKAVIFCLSADKKCIIVEEGKEILVGDVGVTITDPFKHFVGMLPEKDCRYALYDASFETKESRKEELMFFLWAPELAPLKSKMIYASSKDAIKKKFQGIKHECQANGPEDLNRACIAEKLGGSLIVAFEGCPV
B5: SSR1 (protein)
chain: VLFRGGPRGLLAVAQDLTEDEETVEDSIIEDEDDEAEVEEDEPTDLVEDKEEEDVSGEPEASPSADTTILFVKGEDFPANNIVKFLVGFTNKGTEDFIVESLDASFRYPQDYQFYIQNFTALPLNTVVPPQRQATFEYSFIPAEPMGGRPFGLVINLNYKDLNGNVFQDAVFNQTVTVIEREDGLDGETIFMYMFLAGLGLLVIVGLHQLLESRKRKRPIQKVEMGTSSQNDVDMSWIPQETLNQINKASPRRLPRKRAQKRSVGSDE
B6: HNRNPA1 (protein)
chain: SKSESPKEPEQLRKLFIGGLSFETTDESLRSHFEQWGTLTDCVVMRDPNTKRSRGFGFVTYATVEEVDAAMNARPHKVDGRVVEPKRAVSREDSQRPGAHLTVKKIFVGGIKEDTEEHHLRDYFEQYGKIEVIEIMTDRGSGKKRGFAFVTFDDHDSVDKIVIQKYHTVNGHNCEVRKALSKQEMASASSSQRGRSGSGNFGGGRGGGFGGNDNFGRGGNFSGRGGFGGSRGGGGYGGSGDGYNGFGNDGGYGGGGPGYSGGSRGYGSGGQGYGNQGSGYGGSGSYDSYNNGGGGGFGGGSGSNFGGGGSYNDFGNYNNQSSNFGPMKGGNFGGRSSGPYGGGGQYFAKPRNQGGYGGSSSSSSYGSGRRF
B7: RARS (protein)
chain: MDVLVSECSARLLQQEEEIKSLTAEIDRLKNCGCLGASPNLEQLQEENLKLKYRLNILRKSLQAERNKPTKNMINIISRLQEVFGHAIKAAYPDLENPPLLVTPSQQAKFGDYQCNSAMGISQMLKTKEQKVNPREIAENITKHLPDNECIEKVEIAGPGFINVHLRKDFVSEQLTSLLVNGVQLPALGENKKVIVDFSSPNIAKEMHVGHLRSTIIGESISRLFEFAGYDVLRLNHVGDWGTQFGMLIAHLQDKFPDYLTVSPPIGDLQVFYKESKKRFDTEEEFKKRAYQCVVLLQGKNPDITKAWKLICDVSRQELNKIYDALDVSLIERGESFYQDRMNDIVKEFEDRGFVQVDDGRKIVFVPGCSIPLTIVKSDGGYTYDTSDLAAIKQRLFEEKADMIIYVVDNGQSVHFQTIFAAAQMIGWYDPKVTRVFHAGFGVVLGEDKKKFKTRSGETVRLMDLLGEGLKRSMDKLKEKERDKVLTAEELNAAQTSVAYGCIKYADLSHNRLNDYIFSFDKMLDDRGNTAAYLLYAFTRIRSIARLANIDEEMLQKAARETKILLDHEKEWKLGRCILRFPEILQKILDDLFLHTLCDYIYELATAFTEFYDSCYCVEKDRQTGKILKVNMWRMLLCEAVAAVMAKGFDILGIKPVQRM
B8: DNAJB11 (protein)
chain: GRDFYKILGVPRSASIKDIKKAYRKLALQLHPDRNPDDPQAQEKFQDLGAAYEVLSDSEKRKQYDTYGEEGLKDGHQSSHGDIFSHFFGDFGFMFGGTPRQQDRNIPRGSDIIVDLEVTLEEVYAGNFVEVVRNKPVARQAPGKRKCNCRQEMRTTQLGPGRFQMTQEVVCDECPNVKLVNEERTLEVEIEPGVRDGMEYPFIGEGEPHVDGEPGDLRFRIKVVKHPIFERRGDDLYTNVTISLVESLVGFEMDITHLDGHKVHISRDKITRPGAKLWKKGEGLPNFDNNNIKGSLIITFDVDFPKEQLTEEAREGIKQLLKQGSVQKVYNGLQGY

What follows are molecules tested against T1, B3GNT2 (assay: Co-IP of FLAG-tagged B3GNT2 followed by mass spectrometry). Conditions: Co-IP followed by mass spectrometry of B3GNT2; C-term tag, FLAG pull-down.
Type: cell-based
Parameters: C-term IgG / C-term flag: unit not given here
Method: Cells were plated in 10-cm cell culture dishes and grown to 60-80% confluency. For each condition, two biological replicates were harvested for co-IP. Cells were washed with PBS and 4 mL of lysis buffer (20 mM HEPES, 1% Triton X-100, 150 mM NaCl, 1 mM EDTA, and 10% glycerol) containing protease inhibitor cocktail was added. Cells were scraped and lysate was incubated at 4° C. under rotary agitation for 1 h. Lysate was centrifuged at 14,000×g for 10 min at 4° C. Supernatant was transferred to a new tube and an aliquot was taken as the input. […] For Western blots, 10 μg/mL Chicken Anti-FLAG (Aves labs ET-DY100) and IgY control (R&D Systems AB-101-C) antibodies were biotinylated (Thermo Fisher Scientific 90407) and added to the respective conditions. Lysates with antibodies were incubated at 4° C. under rotary agitation overnight. For each mL of lysate, 50 μL of Pierce Protein A/G Magnetic Beads (Mass spectrometry; Thermo Fisher Scientific 88803) or Pierce Streptavidin Magnetic Beads (Western blot; Thermo Fisher Scientific 88817) was washed twice with lysis buffer. Lysates with antibodies were added to the beads and incubated at 4° C. under rotary agitation for 4 h. Beads were washed with lysis buffer 3 times and resuspended in lysis buffer for storage. […] This solution was subjected to solid phase extraction to concentrate the peptides and remove unwanted reagents followed by injection onto a Shimadzu HPLC with fraction collector. Eight fractions were collected and after concentration were injected on a Waters NanoAcquity HPLC equipped with a self-packed Aeris 3 μm C18 analytical column 0.075 mm by 20 cm, (Phenomenex). Peptides were eluted using standard reverse-phase gradients. The effluent from the column was analyzed using a Thermo Orbitrap Elite mass spectrometer (nanospray configuration) operated in a data dependent manner for 54 minutes. […] Scaffold Q+S (Proteome Software) was used to provide consensus reports for the identified proteins.

For B1, the C-term flag was 5.

Same assay, conditions: Co-IP followed by mass spectrometry of B3GNT2; C-term tag, IgG pull-down

In the case of B1, the “C-term IgG” value is reported as 2.

Same assay, conditions: Co-IP followed by mass spectrometry of B3GNT2; N-term tag, FLAG pull-down

B1 was tested, and the “N-term FLAG” value was 5.

Same assay, conditions: Co-IP followed by mass spectrometry of B3GNT2; N-term tag, IgG pull-down

With B1 the “N-term IgG” value was 3.

Same assay, conditions: Co-IP with FLAG antibody, C-terminally FLAG-tagged B3GNT2; mass spectrometry count, unit not given

Compared with B2, B3 is lower in C-term flag: 7 for the first, 0 for the second.

Compared with B4, B5 is higher in C-term flag: 3 for the first, 4 for the second.

Compared with B6, B7 is lower in C-term flag: 9 for the first, 2 for the second.

Molecule B8 has a C-term flag of 4.

Same assay, conditions: Co-IP with FLAG antibody, N-terminally FLAG-tagged B3GNT2; mass spectrometry count, unit not given

Going from B2 to B3, the “N-term FLAG” value rises from 0 to 16.

Going from B4 to B5, the “N-term FLAG” value rises from 0 to 3.

Going from B6 to B7, the “N-term FLAG” value falls from 7 to 0.

In the case of B8, the “N-term FLAG” value is reported as 3.

Same assay, conditions: Co-IP with IgG control antibody, C-terminally FLAG-tagged B3GNT2; mass spectrometry count, unit not given

First: B2
Second: B3
The “C-term IgG” value of the first is lower: 0 for the first, 5 for the second.

B4 and B5 are the same in “C-term IgG” value: 0 for the first, 0 for the second.

Compared with B6, B7 is lower in “C-term IgG” value: 4 for the first, 0 for the second.

For B8, the “C-term IgG” value was 0.

Same assay, conditions: Co-IP with IgG control antibody, N-terminally FLAG-tagged B3GNT2; mass spectrometry count, unit not given

Going from B2 to B3, the “N-term IgG” value rises from 0 to 3.

B4 and B5 are the same in “N-term IgG” value: 0 for the first, 0 for the second.

First: B6
Second: B7
The “N-term IgG” value of the first is higher: 4 for the first, 0 for the second.

B8 was tested, and the “N-term IgG” value was 0.
